Reference: patent US20170166621A1 (Novartis, published 2017)
One block for each binder: values may come before it.

What was measured:
GLP-1 receptor = GLP-1 receptor (UniProt P43220 24-463, limits assumed); test: cell-based or functional assay
FGF21 receptor = test: cell-based or functional assay

- cAMP EC50 (fold-Ex-4); GLP-1R only cells (GLP-1 receptor): 6 fold
- cAMP EC50 (fold-Ex-4); GLP-1R/FGFR1c/beta-klotho cells (GLP-1 receptor): 0.4 fold
- cAMP EC50 (nM); GLP-1R only cells (GLP-1 receptor): 64 nM
- cAMP EC50 (nM); GLP-1R/FGFR1c/beta-klotho cells (GLP-1 receptor): 2.4 nM
B1: GLP-1(7-35; A8S)-GSGGGGSGGG-FGF21(33-209; Q56E-D74H-Q82E-R105K-K150R-R154C-40 kDa branched PEG-R159Q-S195A) (ligand)
chain: HSEGTFTSDVSSYLEGQAAKEFIAWLVKGGSGGGGSGGGDSSPLLQFGGQVRQRYLYTDDAQETEAHLEIREDGTVGGAAHQSPESLLELKALKPGVIQILGVKTSRFLCQKPDGALYGSLHFDPEACSFRELLLEDGYNVYQSEAHGLPLHLPGNRSPHCDPAPQGPARFLPLPGLPPALPEPPGILAPQPPDVGSSDPLAMVGPSQGRSPSYAS
modifications: 40 kDa branched PEG on Cys at R154C (FGF21 numbering)

- potency in the FGF21 receptor assay (FGF21 receptor): ≥ 1000 fold less potent
- cAMP EC50 (fold-Ex-4); GLP-1R only cells (GLP-1 receptor): 3.2 fold
- cAMP EC50 (fold-Ex-4); GLP-1R only cells; V253 + V76 co-treatment (GLP-1 receptor): 3.5 fold
- cAMP EC50 (fold-Ex-4); GLP-1R/FGFR1c/beta-klotho cells (GLP-1 receptor): 4.1 fold
- cAMP EC50 (fold-Ex-4); GLP-1R/FGFR1c/beta-klotho cells; V253 + V76 co-treatment (GLP-1 receptor): 2.1 fold
- cAMP EC50 (nM); GLP-1R only cells (GLP-1 receptor): 34 nM
- cAMP EC50 (nM); GLP-1R only cells; V253 + V76 co-treatment (GLP-1 receptor): 38 nM
- cAMP EC50 (nM); GLP-1R/FGFR1c/beta-klotho cells (GLP-1 receptor): 24 nM
- cAMP EC50 (nM); GLP-1R/FGFR1c/beta-klotho cells; V253 + V76 co-treatment (GLP-1 receptor): 12 nM
B2: GLP-1(7-35; A8S)-SGGGGSGGG-FGF21(33-194; R154C-40 kDa branched PEG) (ligand)
chain: HSEGTFTSDVSSYLEGQAAKEFIAWLVKGGSGGGGSGGGDSSPLLQFGGQVRQRYLYTDDAQQTEAHLEIREDGTVGGAADQSPESLLQLKALKPGVIQILGVKTSRFLCQRPDGALYGSLHFDPEACSFRELLLEDGYNVYQSEAHGLPLHLPGNKSPHCDPAPRGPARFLPLPGLPPALPEPPGILAPQPPDVGSSDPLS
modifications: 40 kDa branched PEG on Cys at R154C (FGF21 numbering)
